Columns and labels:
8-arm-PEG-P2 (20 kDa) = experiment: cell-based or functional assay
8-arm-PEG-P1 (40 kDa) = experiment: cell-based or functional assay

Chain of 8-arm-PEG-P2 (20 kDa) (peptide, as listed by the source): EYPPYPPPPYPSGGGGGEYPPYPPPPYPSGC

Substance: C7 recombinant protein polymer (seven repeats of the CC43 WW domain) (designed binder)
- storage modulus G′ of the hydrogel 8P2-20k (8-arm-PEG-P2 (20 kDa)): 15 Pa
- storage modulus G′ of the hydrogel 8P1-40k (8-arm-PEG-P1 (40 kDa)): 3.9 Pa

— patent publication US20150290329A1
